According to PMC2954210, “Structure of an essential bacterial protein YeaZ (TM0874) from Thermotoga maritima at 2.5 Å resolution” (Acta Crystallographica Section F: Structural Biology and …, 2009):

Biological target: the molecule itself
Experiment: SEC-MALS; Superdex 200 column coupled with miniDAWN static light-scattering and Optilab refractive-index detectors; 20 mM Tris-HCl pH 7.9, 150 mM NaCl, 0.02% sodium azide

B1: YeaZ (TM0874) from Thermotoga maritima (natural protein, UniProt Q9WZX7 1-206, looked up)
chain: MNVLALDTSQRIRIGLRKGEDLFEISYTGEKKHAEILPVVVKKLLDELDLKVKDLDVVGVGIGPGGLTGLRVGIATVVGLVSPYDIPVAPLNSFEMTAKSCPADGVVLVARRARKGYHYCAVYLKDKGLNPLKEPSVVSDEELEEITKEFSPKIVLKDDLLISPAVLVEESERLFREKKTIHYYEIEPLYLQKSIAELNWEKKKRG
modifications: selenomethionine derivative
notes: YeaZ (TM0874), Thermotoga maritima, full-length protein, residues 1-206; Swiss-Prot Q9WZX7; Cloned into plasmid pMH4; In the crystal model residues 1-193 (chain A) and 0-187 (chain B) are ordered; residue 0 is the last residue of the His tag; also called TmYeaZ; His-tagged SeMet-TmYeaZ; source: E. coli GeneHogs, selenomethionine-containing medium, purified (nickel-chelating resin, Resource Q)
With B1 the “stoichiometry N” value was 2.
